Assay results from patent publication US20230399394A1 (SUNSHINE GUOJIAN PHARMACEUTICAL SHANGHAI, published 2023).

Assays:
[1] = target: T1, IL-33 mutant protein E62A (human, UniProt O95760 112-270); experiment: ELISA as Example 9; row E62A
T1 construct: Prokaryotic expression
T1 chain: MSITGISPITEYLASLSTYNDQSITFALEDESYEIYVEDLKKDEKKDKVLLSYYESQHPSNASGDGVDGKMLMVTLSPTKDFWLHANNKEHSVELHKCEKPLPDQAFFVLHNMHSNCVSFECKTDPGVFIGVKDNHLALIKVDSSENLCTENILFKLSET
Protocol: (§1) SA protein was diluted to 2 μg/mL to coat ELISA plate at 100 μL/well overnight at 4° C. The plate was washed with PBST (PBS containing 0.05% Tween20) for 3 times, and blocked with 2% BSA prepared in PBS at 200 μL/well, at room temperature for 2 h. After the plate was washed twice with PBST, IL-33-his-biotin protein was diluted to 1 μg/mL with 1% BSA prepared in PBST, and was added to ELISA plate at 100 μL/well. The plate was incubated at room temperature for 1 h, and each monoclonal antibody was diluted with 1% BSA prepared in PBST in a 3-fold gradient. The highest concentration of antibody was 10 μg/mL, and the antibody was diluted for 12 gradients. Each diluted monoclonal antibody was added to ELISA wells with 100 μL/well, and the plate was incubated at room temperature for 1 h. Each sample was added to duplicate wells in parallel. The plate was washed with PBST for 3 times, and HRP-anti human IgG Fc secondary antibody prepared with PBST was diluted at an appropriate ratio, and was added to ELISA wells at 100 μL/well. […] Each reaction solution was shaken uniformly and OD450 nm was read on a microplate reader. The data was analyzed and EC₅₀ was calculated.
(§2) Subsequently, according to the experimental method of Example 9, the affinity of the above mutant proteins to 874F7-Hu1 was determined, and IL-33 proteins (WT-1, WT-2, WT-3, and WT-4) without any mutation were set as controls.

[2] = target: T2, IL-33 mutant protein H58A (human, UniProt O95760 112-270); experiment: ELISA as Example 9; row H58A
T2 construct: Prokaryotic expression
T2 chain: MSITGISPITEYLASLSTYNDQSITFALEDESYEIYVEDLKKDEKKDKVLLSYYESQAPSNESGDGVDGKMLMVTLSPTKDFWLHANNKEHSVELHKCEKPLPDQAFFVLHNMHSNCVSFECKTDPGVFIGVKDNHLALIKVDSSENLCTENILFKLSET
Protocol: as §1, §2

[3] = target: T3, IL-33 mutant protein L50A (human, UniProt O95760 112-270); experiment: ELISA as Example 9; row L50A
T3 construct: Prokaryotic expression
T3 chain: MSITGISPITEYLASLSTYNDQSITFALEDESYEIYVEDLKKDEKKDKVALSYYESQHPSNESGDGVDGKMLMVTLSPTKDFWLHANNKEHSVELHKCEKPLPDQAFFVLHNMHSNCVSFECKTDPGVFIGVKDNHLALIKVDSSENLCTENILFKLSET
Protocol: as §1, §2

[4] = target: T4, IL-33 protein without any mutation (WT) (human, UniProt O95760 112-270); experiment: ELISA as Example 9; row WT-2
T4 construct: Control of the alanine scan (four runs WT-1 to WT-4); also called WT-1; WT-2
T4 sequence: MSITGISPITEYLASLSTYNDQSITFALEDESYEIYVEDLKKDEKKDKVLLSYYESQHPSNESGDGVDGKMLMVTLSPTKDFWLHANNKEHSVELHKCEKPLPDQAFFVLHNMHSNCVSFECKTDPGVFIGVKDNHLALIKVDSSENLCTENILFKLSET
Protocol: as §1, §2

[5] = target: T5, IL-33 mutant protein K45A (human, UniProt O95760 112-270); experiment: ELISA as Example 9; row K45A against WT-1
T5 construct: Prokaryotic expression
T5 chain: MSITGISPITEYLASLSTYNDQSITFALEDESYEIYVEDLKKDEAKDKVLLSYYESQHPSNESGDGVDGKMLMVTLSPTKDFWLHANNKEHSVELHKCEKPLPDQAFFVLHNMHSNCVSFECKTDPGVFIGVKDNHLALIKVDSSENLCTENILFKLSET
Protocol: as §1, §2

[6] = target: T6, IL-33 mutant protein S63A (human, UniProt O95760 112-270); experiment: ELISA as Example 9; row S63A against WT-3
T6 construct: Prokaryotic expression
T6 chain: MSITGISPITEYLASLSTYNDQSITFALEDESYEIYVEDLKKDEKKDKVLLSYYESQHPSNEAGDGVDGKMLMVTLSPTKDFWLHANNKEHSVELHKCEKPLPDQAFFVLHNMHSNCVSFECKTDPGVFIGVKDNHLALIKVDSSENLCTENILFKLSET
Protocol: as §1, §2

[7] = target: T7, IL-33 mutant protein V49A (human, UniProt O95760 112-270); experiment: ELISA as Example 9; row V49A against WT-2
T7 construct: Prokaryotic expression
T7 chain: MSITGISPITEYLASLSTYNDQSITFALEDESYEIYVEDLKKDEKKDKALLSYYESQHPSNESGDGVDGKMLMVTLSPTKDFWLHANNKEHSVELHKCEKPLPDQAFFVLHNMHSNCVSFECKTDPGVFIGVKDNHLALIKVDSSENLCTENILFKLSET
Protocol: as §1, §2

[8] = target: T4, IL-33 protein without any mutation (WT); experiment: ELISA as Example 9; row WT-1, the reference itself
Protocol: as §1, §2

Pep8 = target: T8, Pep8 (human, N-terminal biotin); experiment: ELISA, biotinylated peptide on streptavidin plate
T8 construct: Synthetic 20-mer of human IL-33
T8 peptide: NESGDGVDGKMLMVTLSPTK
Protocol: To determine the binding activity of antibody to each polypeptide fragment, the ELISA plate was pre-coated by biotin-avidin (SA) which was diluted in coating solution (50 mM carbonate coating buffer, pH 9.6) to 2 μg/ml at 4° C. overnight. The plate was washed with PBST for 3 times, and then blocked with 2% BSA prepared in PBS at room temperature for 2 h with 200 μL/well. The plate was washed once with PBST, and 864F3 and 874F7 with final concentrations of 10 μg/mL were added at 100 μL/well, respectively, and the plate was incubated at room temperature for 1 h. The plate was washed with PBST for 3 times, and the goat anti-mouse IgG labeled by HRP was added and placed at 37° C. for 30 min. After washing the plate with PBST for 3 times, the plate was patted on the absorbent paper to remove residual droplets as far as possible. 100 μl TMB developing solution was added to each well, and the plate was placed at room temperature (20±5° C.) for 5 minutes away from light; 50 μl 2M H₂SO₄ terminating solution was added to each well to terminate the substrate reaction. OD values were read at 450 nm on the microplate reader to analyze the binding ability of the antibody to each polypeptide fragment. The experimental results are shown in […]

Row | Binder | EC50 [1] [nM] | EC50 [2] [nM] | EC50 [3] [nM] | EC50 [4] [nM] | Affinity decline ratio [5] [fold] | Affinity decline ratio [6] [fold] | Affinity decline ratio [7] [fold] | Affinity decline ratio [8] [fold] | binding result (Pep8)
1 | 874F7-Hu1 (antibody, human IgG4 S228P, kappa, also called 874F7-Hul; humanized antibody 874F7-Hu1) heavy: not shown light: DIQMTQSPSSVSASVGDRVTITCLASQTIGAWLAWYQQKPGKSPKLLIYAATRLADGVPSRFSGSGSGTDFTLTISSLQPEDFATYYCQQLDSSPYTFGQGTKVEIKRTVAAPSVFIFPPSDEQLKSGTASVVCLLNNFYPREAKVQWKVDNALQSGNSQESVTEQDSKDSTYSLSSTLTLSKADYEKHKVYACEVTHQGLSSPVTKSFNRGEC | 0.15 | 0.43 | 3.34 | 0.13 | > 25 | 0.9 | > 25 | 1 | –
2 | 874F7 (antibody, V domains shown, Murine hybridoma antibody purified on Protein G; also called murine antibody 874F7) VH: QVQLKESGPGLVAPSHSLSITCNVSGFSLSKYGVHWIRQIPGRGLDWLGVLRAGGSTGYNSALMSRLSISKDSSKSQVFLKMNDLRTDDTAVYFCVRDHYYYSSYGGFVYWGQGTLVTVSA VL: DIQMTQSPASQSASLGESVTITCLASQTIGAWLAWYRQQPGKSPQLLIYAATRLADGVPSRFSGSGSGTEFSFKINNLQAEDFVSYYCQQLDSSPYTFGGGTRLEM | – | – | – | – | – | – | – | – | no binding (tested: 10 µg/mL)
